# Assay results taken from publication PMC8931191.
# Target: 3HA-MCHR1 (melanin-concentrating hormone receptor 1) (mouse) (UniProt Q8JZL2)
# UniProt Q8JZL2, sequence (Q8JZL2 whole entry): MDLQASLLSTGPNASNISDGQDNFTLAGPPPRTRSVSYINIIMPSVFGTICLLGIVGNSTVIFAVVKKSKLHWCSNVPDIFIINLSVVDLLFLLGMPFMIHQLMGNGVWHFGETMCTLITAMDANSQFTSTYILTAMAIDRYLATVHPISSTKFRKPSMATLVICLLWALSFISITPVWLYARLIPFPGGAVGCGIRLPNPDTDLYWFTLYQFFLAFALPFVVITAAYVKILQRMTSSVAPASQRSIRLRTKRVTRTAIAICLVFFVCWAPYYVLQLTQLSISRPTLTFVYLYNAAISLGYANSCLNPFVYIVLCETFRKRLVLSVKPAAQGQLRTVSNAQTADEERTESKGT
binder,measurement,value
DFDMLRCMLGRVYRPCWQV [Melanin concentrating hormone (MCH)],"LogEC50 of MCH (10^-11 to 10^-6 M), NFAT-luciferase Ca2+ reporter in HEK293T cells with MCHR1 alone",-8.15 log M
same,"LogEC50 of MCH, NFAT-luciferase Ca2+ reporter in HEK293T cells with MCHR1 and MRAP2 WT co-transfected (1:9)",-7.06 log M
same,"LogEC50 of MCH, NFAT-luciferase Ca2+ reporter in HEK293T cells with MCHR1 and MRAP2 t97 co-transfected (1:9)",-7.34 log M
same,"LogEC50 of MCH, NFAT-luciferase Ca2+ reporter in HEK293T cells with MCHR1 and MRAP2 t118 co-transfected (1:9)",-7.59 log M
same,"LogEC50 of MCH, NFAT-luciferase Ca2+ reporter in HEK293T cells with MCHR1 and MRAP2 t143 co-transfected (1:9)",-7.6 log M
same,"LogEC50 of MCH, NFAT-luciferase Ca2+ reporter in HEK293T cells with MCHR1 and MRAP2 Δ4–11 co-transfected (1:9)",-7.24 log M
same,"LogEC50 of MCH, NFAT-luciferase Ca2+ reporter in HEK293T cells with MCHR1 and MRAP2 Δ12–25 co-transfected (1:9)",-6.76 log M
same,"LogEC50 of MCH, NFAT-luciferase Ca2+ reporter in HEK293T cells with MCHR1 and MRAP2 Δ26–35 co-transfected (1:9)",-7.55 log M
same,"LogEC50 of MCH, NFAT-luciferase Ca2+ reporter in HEK293T cells with MCHR1 and MRAP2 Δ36–45 co-transfected (1:9)",-6.64 log M
same,"LogEC50 of MCH, NFAT-luciferase Ca2+ reporter in HEK293T cells with MCHR1 and MRAP2 Δct co-transfected (1:9)",-7.51 log M
